Assay results published in patent US20230416396A1 (Regeneron, published 2023).

How the values were obtained:
human 4-1BB on cells [1] = molecular target: T1, human 4-1BB on cells (human, UniProt Q07011 24-255); assay: cell-based or functional assay
human 4-1BB on cells [2] = molecular target: T1, human 4-1BB on cells; assay: flow cytometry on HEK293/h4-1BB cells, APC anti-human secondary
Protocol: The ability of the multispecific antigen binding molecules to bind cells was assessed using flow cytometry. Cell lines were chosen to determine the ability of both the anti-CD38 and anti-4-1BB arms to bind their targets. […] Binding was detected by using a labeled secondary antibody and measuring fluorescence on a flow cytometer.
HEK293 and HEK293/4-1BB cells were lifted with trypsin, washed and resuspended in stain buffer (2% FBS in PBS) and added to wells of a 96 well V-bottom plate (3×10⁵ cells/well). A 1:5, 9-point, dose titration of test antibodies was diluted in stain buffer and added to cells to a final concentration ranging from 1.3 pM to 100 nM (a “no antibody” control was included as the ninth point ([…]) labeled as “secondary only”). Cells and antibodies were incubated for 30 min on ice and then washed in stain buffer. Cells were resuspended in 2 ug/ml allophycocyanin (APC) conjugated goat-anti human secondary antibody and incubated for 30 min on ice. Cells were then washed and resuspended in viability dye (according to the manufacturer's protocol) and incubated for 30 min on ice. Cells were then washed with stain buffer and resuspended in 2% PFA for 30 min on ice. After washing, cells were filtered and analyzed by flow cytometry to determine the geometric mean fluorescence intensity (gMFI), which was subsequently plotted using GraphPad Prism software. EC₅₀ values of the antibodies were determined from a 4-parameter logistic equation over a 9-point dose response curve (including secondary only control).

T1 sequence (Q07011 24-255): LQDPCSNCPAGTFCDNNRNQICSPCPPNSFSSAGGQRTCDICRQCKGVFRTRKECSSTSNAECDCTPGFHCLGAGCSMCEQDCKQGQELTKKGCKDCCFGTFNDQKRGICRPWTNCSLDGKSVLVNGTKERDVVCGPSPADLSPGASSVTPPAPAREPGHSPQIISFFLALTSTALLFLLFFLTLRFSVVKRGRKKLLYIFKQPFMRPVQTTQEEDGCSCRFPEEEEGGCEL

B1: REGN7647 (bispecific antibody, human IgG4 S228P, kappa)
heavy 1: EVQLVESGGGLVQPGRSLRLSCGASGFTFDDYVMHWVRQIPGKGLEWVAGISWNSGSIGYADSVKGRFTISRDNAKNSLYLQMNSLRAEDTALYFCAKDHIDPYSSSLYYYYGMDVWGQGTTVTVSSASTKGPSVFPLAPCSRSTSESTAALGCLVKDYFPEPVTVSWNSGALTSGVHTFPAVLQSSGLYSLSSVVTVPSSSLGTKTYTCNVDHKPSNTKVDKRVESKYGPPGGGGSGGGGSGGGGSEVQLVESGGGLVQPGRSLRLSCGASGFTFDDYVMHWVRQIPGKGLEWVAGISWNSGSIGYADSVKGRFTISRDNAKNSLYLQMNSLRAEDTALYFCAKDHIDPYSSSLYYYYGMDVWGQGTTVTVSSASTKGPSVFPLAPCSRSTSESTAALGCLVKDYFPEPVTVSWNSGALTSGVHTFPAVLQSSGLYSLSSVVTVPSSSLGTKTYTCNVDHKPSNTKVDKRVESKYGPPCPPCPAPPVAGPSVFLFPPKPKDTLMISRTPEVTCVVVDVSQEDPEVQFNWYVDGVEVHNAKTKPREEQFNSTYRVVSVLTVLHQDWLNGKEYKCKVSNKGLPSSIEKTISKAKGQPREPQVYTLPPSQEEMTKNQVSLTCLVKGFYPSDIAVEWESNGQPENNYKTTPPVLDSDGSFFLYSRLTVDKSRWQEGNVFSCSVMHEALHNRFTQKSLSLSPGK
heavy 2: EVQLVESGGGLVQPGRSLRLSCAASGFTFDDYAMHWVRQAPGKGLEWVSGISWKSDNIGYADSVKGRFTISRDNAKNSLYLQMNSLRAEDTALYYCAKALGGWKFDYYYGMDVWGQGTTVTVSSASTKGPSVFPLAPCSRSTSESTAALGCLVKDYFPEPVTVSWNSGALTSGVHTFPAVLQSSGLYSLSSVVTVPSSSLGTKTYTCNVDHKPSNTKVDKRVESKYGPPCPPCPAPPVAGPSVFLFPPKPKDTLMISRTPEVTCVVVDVSQEDPEVQFNWYVDGVEVHNAKTKPREEQFNSTYRVVSVLTVLHQDWLNGKEYKCKVSNKGLPSSIEKTISKAKGQPREPQVYTLPPSQEEMTKNQVSLTCLVKGFYPSDIAVEWESNGQPENNYKTTPPVLDSDGSFFLYSRLTVDKSRWQEGNVFSCSVMHEALHNHYTQKSLSLSLGK
light: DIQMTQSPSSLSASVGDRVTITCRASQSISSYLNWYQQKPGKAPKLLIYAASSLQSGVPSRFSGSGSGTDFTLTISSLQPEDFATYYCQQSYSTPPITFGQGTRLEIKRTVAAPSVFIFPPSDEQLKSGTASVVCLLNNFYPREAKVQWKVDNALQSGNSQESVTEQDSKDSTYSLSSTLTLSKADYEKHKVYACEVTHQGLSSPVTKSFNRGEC
notes: 1+2 format, hIgG4P-PVA; The linker between the two 4-1BB Fabs is (G4S)3v15; also called CD38x4-1BB (1 + 2), (G4S)3v15; 26812P2 x 35333P2 (IN) + 35333P2 (OUT)
Q: Which “EC50 of IL-2 release, T cells + HEK293/CD20/CD38 + REGN1979” value (human 4-1BB on cells [1]) does the source give for B1 here?
A: 0.0058 nM

Q: What about the “EC50 of IL-2 release, T cells + MOLP-8 + IsoC” value (human 4-1BB on cells [1]) of the same binder?
A: 0.00221 nM

Q: And the “EC50 of IL-2 release, T cells + MOLP-8 + REGN5458” value (human 4-1BB on cells [1])?
A: 0.0231 nM

Q: And the “MAX IL-2 release, T cells + HEK293/CD20 + REGN1979” value (human 4-1BB on cells [1])?
A: 199 pg/mL

Q: What about the “MAX IL-2 release, T cells + HEK293/CD20/CD38 + IsoC” value (human 4-1BB on cells [1]) of the same binder?
A: 18 pg/mL

Q: What about the “MAX IL-2 release, T cells + HEK293/CD20/CD38 + REGN1979” value (human 4-1BB on cells [1]) of the same binder?
A: 2850 pg/mL

Q: What about the “MAX IL-2 release, T cells + MOLP-8 + IsoC” value (human 4-1BB on cells [1]) of the same binder?
A: 331 pg/mL

Q: What about the “MAX IL-2 release, T cells + MOLP-8 + REGN5458” value (human 4-1BB on cells [1]) of the same binder?
A: 692 pg/mL

Q: What about the EC50 (human 4-1BB on cells [2]) of the same binder?
A: 0.608 nM

Q: And the “MAX gMFI” value (human 4-1BB on cells [2])?
A: 1.4e+06 gMFI
